# ± gives the uncertainty stated by the source.
# Experiment: self-splicing fitness, log relative to wild type (ln ratio); higher = more splicing; Tetrahymena group I intron in knt gene, E. coli kanamycin selection, DiMSum; sequences stand for … in CUCUCU…GGAGGGAAAAGUUAUCAGGCAUGCACCUGGUAGCUAGUCUUUAAACCAAUAGAUUGCAUCGGUUUAAAAGGCAAGACCGUCAAAUUGCGGGAAAGGGGUCAACAGCCGUUCAGUACCAAGUCUCAGGGGAAACUUUGAGAUGGCCUUGCAAAGGGUAUGGUAAUAAGCUGACGGACAUGGUCCUAACCACGCAGCCAAGUCCUAAGUCAACAGAUCUUCUGUUGAUAUGGAUGCAGUUCACAGACUAAAUGUCGGUCGGGGAAGAUGUAUUCUUCUCAUAAGAUAUAGUCGGACCUCUCCUUAAUGGGAGCUAGCGGAUGAAGUGAUGCAACACUGGAGCCGCUGGGAACUAAUUUGUAUGCGAAAGUAUAUUGAUUAGUUUUGGAGUACUCGUGGUCG
# How it was run: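 Fitness was computed with DiMSum as the error-weighted combination of replicate fold changes, kanamycin versus none, each normalised to wild type. The library randomised all eight intron nucleotides of the P1ex region, with the intron placed in the knt kanamycin-resistance gene on pET-22b(+) in E. coli BL21(DE3). Six replicate transformations were grown overnight at 37°C or 30°C on LB agar with or without 25 μg/mL kanamycin, plus 100 μg/mL carbenicillin, 50 μM IPTG and 0.2% rhamnose. Pooled colonies were amplicon-sequenced on an Illumina HiSeq 2500.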
Sequence,self-splicing fitness (ln) (30 °C),self-splicing fitness (ln) (37 °C)
GGCUAGCAAUAUUACGUCUG,-4.06 ± 0.31,-2.13 ± 0.17
UUGGAGCAAUAUUACGAGCG,-2.64 ± 0.3,-0.508 ± 0.32
GUGCAGCAAUAUUACGGUCA,-1.46 ± 0.12,-1.16 ± 0.11
AUGCAGCAAUAUUACGUCCU,0.0695 ± 0.095,0.786 ± 0.11
CUAUAGCAAUAUUACGACUC,–,-1.31 ± 0.39
UGCAAGCAAUAUUACGUUCA,0.123 ± 0.06,0.454 ± 0.088
AUGGAGCAAUAUUACGGCAC,-1.14 ± 0.37,-0.0162 ± 0.42
GCAUAGCAAUAUUACGACUC,-0.352 ± 0.16,0.841 ± 0.13
UGCAAGCAAUAUUACGAAUG,-1.35 ± 0.085,-0.724 ± 0.12
CAGCAGCAAUAUUACGUGUU,-4.61 ± 0.22,-2.5 ± 0.13
ACUCAGCAAUAUUACGACGG,-0.71 ± 0.072,0.0441 ± 0.12
AUAGAGCAAUAUUACGUACG,-2.22 ± 0.2,-1.53 ± 0.23
CCACAGCAAUAUUACGGGCG,-0.605 ± 0.065,0.193 ± 0.087
GAUCAGCAAUAUUACGUCCU,-0.874 ± 0.1,-0.0507 ± 0.092
UGGUAGCAAUAUUACGAAUU,-1.86 ± 0.36,-2.22 ± 0.32
CCCCAGCAAUAUUACGACCG,-4.12 ± 0.26,-1.76 ± 0.34
UACGAGCAAUAUUACGUAGA,-3.47 ± 0.17,-2.77 ± 0.29
AGCCAGCAAUAUUACGGUCG,-0.387 ± 0.078,-0.328 ± 0.092
UGAAAGCAAUAUUACGCCCC,-1.35 ± 0.43,0.00457 ± 0.49
AGCGAGCAAUAUUACGUUUG,-3.44 ± 0.2,-3.64 ± 0.31
UUCAAGCAAUAUUACGCGAA,-3.01 ± 0.18,-1.47 ± 0.13
GCCGAGCAAUAUUACGCGUU,-1.62 ± 0.076,-0.778 ± 0.095
UCCAAGCAAUAUUACGUAUA,-2.19 ± 0.094,-1.29 ± 0.096
AUGUAGCAAUAUUACGAACG,-1.27 ± 0.13,-0.894 ± 0.16

Sequence,self-splicing fitness (ln) (30 °C),self-splicing fitness (ln) (37 °C)
AAGGAGCAAUAUUACGGAUG,-3.8 ± 0.21,-3.29 ± 0.35
AUACAGCAAUAUUACGGUGU,-3.8 ± 0.2,-2.18 ± 0.13
UCUGAGCAAUAUUACGAUCA,-3.84 ± 0.4,-2.38 ± 0.36
CUUUAGCAAUAUUACGGACC,–,-1.83 ± 0.41
UCGUAGCAAUAUUACGCGUG,-0.861 ± 0.1,-0.648 ± 0.096
UCCUAGCAAUAUUACGUCGG,-2.31 ± 0.19,-0.128 ± 0.15
UUGCAGCAAUAUUACGCUCA,-0.833 ± 0.18,-0.278 ± 0.17
ACACAGCAAUAUUACGGGCC,-3.37 ± 0.19,-2.11 ± 0.18
CUAAAGCAAUAUUACGUGAG,-0.0713 ± 0.047,-0.2 ± 0.066
UUAUAGCAAUAUUACGUGAC,-3.22 ± 0.22,-0.826 ± 0.22
AGUAAGCAAUAUUACGAACC,-1.74 ± 0.21,1.04 ± 0.23
AACUAGCAAUAUUACGUACC,-1.14 ± 0.1,-0.0487 ± 0.14
ACGCAGCAAUAUUACGUUGG,-2.94 ± 0.082,-1.91 ± 0.096
GGCAAGCAAUAUUACGUGAG,-1.21 ± 0.059,-0.0615 ± 0.08
AAUCAGCAAUAUUACGAAUG,-0.581 ± 0.069,-0.488 ± 0.12
CUUCAGCAAUAUUACGGCAC,-4.13 ± 0.33,-0.568 ± 0.13
AUGAAGCAAUAUUACGGGCG,-0.667 ± 0.081,0.118 ± 0.1
GACAAGCAAUAUUACGGAGG,-4.57 ± 0.31,-2.08 ± 0.19
GAAUAGCAAUAUUACGUCCG,-1.39 ± 0.15,-1.33 ± 0.22
CAUUAGCAAUAUUACGAUAA,-2.24 ± 0.2,-1.75 ± 0.23
UACCAGCAAUAUUACGUCAU,-2.21 ± 0.085,-1.52 ± 0.088
GGAUAGCAAUAUUACGUAAU,-1.99 ± 0.13,-0.617 ± 0.14
AGAUAGCAAUAUUACGGGCC,-1.68 ± 0.19,-2.68 ± 0.36
AAUUAGCAAUAUUACGUCGC,-3.08 ± 0.27,-1.38 ± 0.21
